Experimental data taken from the supplement of paper PMC9876800.

System: peptide library, one residue held at a place counted from the S/T acceptor
Assay: relative phosphorylation of the sub-library (ratio to the mean residue at this position); higher = residue favoured
Settings: human
Method in brief: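 Human or orthologue kinase constructs, purified and recombinant, were incubated under kinase-specific conditions in 384-well plates with biotinylated degenerate peptide sub-libraries. Each sub-library fixed one residue at one position around a central Ser/Thr. Incubations lasted 90 min with peptides at 50 μM and 50 μM ATP spiked with γ-32P-ATP, after which spots on streptavidin membranes were phosphorimaged and quantified by densitometry. Relative sub-library phosphorylation is a ratio to the mean residue at that position.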

HIPK4, construct: Full length, sequence (Q8NE63 whole entry, looked up): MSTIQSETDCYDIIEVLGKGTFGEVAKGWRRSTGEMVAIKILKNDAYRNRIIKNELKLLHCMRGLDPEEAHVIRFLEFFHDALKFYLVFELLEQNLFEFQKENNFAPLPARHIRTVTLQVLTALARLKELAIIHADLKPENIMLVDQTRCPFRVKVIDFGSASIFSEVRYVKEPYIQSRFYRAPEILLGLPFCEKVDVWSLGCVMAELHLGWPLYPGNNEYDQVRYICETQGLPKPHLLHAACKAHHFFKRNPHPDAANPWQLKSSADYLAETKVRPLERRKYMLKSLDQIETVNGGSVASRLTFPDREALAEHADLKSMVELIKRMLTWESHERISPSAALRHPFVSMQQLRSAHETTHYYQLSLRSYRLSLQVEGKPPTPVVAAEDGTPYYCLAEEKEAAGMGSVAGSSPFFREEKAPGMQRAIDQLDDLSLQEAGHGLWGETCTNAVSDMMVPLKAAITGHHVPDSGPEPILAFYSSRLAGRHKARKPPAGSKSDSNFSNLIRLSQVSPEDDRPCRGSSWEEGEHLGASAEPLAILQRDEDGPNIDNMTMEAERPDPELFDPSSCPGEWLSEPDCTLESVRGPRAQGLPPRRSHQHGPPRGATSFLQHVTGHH
IRAK4, construct: aa104-end, sequence (Q9NWZ3 104-460, looked up): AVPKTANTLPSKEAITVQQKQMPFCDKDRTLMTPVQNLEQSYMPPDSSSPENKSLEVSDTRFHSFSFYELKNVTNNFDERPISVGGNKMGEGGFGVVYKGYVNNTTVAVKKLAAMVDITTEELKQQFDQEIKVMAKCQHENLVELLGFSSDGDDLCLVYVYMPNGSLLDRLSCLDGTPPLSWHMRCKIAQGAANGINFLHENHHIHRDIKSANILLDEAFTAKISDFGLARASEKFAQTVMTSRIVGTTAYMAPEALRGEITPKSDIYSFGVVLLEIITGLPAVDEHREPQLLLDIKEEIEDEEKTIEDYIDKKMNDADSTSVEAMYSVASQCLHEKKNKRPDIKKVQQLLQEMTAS
LRRK2, construct: aa960-end, sequence (Q5S007 960-2527, looked up): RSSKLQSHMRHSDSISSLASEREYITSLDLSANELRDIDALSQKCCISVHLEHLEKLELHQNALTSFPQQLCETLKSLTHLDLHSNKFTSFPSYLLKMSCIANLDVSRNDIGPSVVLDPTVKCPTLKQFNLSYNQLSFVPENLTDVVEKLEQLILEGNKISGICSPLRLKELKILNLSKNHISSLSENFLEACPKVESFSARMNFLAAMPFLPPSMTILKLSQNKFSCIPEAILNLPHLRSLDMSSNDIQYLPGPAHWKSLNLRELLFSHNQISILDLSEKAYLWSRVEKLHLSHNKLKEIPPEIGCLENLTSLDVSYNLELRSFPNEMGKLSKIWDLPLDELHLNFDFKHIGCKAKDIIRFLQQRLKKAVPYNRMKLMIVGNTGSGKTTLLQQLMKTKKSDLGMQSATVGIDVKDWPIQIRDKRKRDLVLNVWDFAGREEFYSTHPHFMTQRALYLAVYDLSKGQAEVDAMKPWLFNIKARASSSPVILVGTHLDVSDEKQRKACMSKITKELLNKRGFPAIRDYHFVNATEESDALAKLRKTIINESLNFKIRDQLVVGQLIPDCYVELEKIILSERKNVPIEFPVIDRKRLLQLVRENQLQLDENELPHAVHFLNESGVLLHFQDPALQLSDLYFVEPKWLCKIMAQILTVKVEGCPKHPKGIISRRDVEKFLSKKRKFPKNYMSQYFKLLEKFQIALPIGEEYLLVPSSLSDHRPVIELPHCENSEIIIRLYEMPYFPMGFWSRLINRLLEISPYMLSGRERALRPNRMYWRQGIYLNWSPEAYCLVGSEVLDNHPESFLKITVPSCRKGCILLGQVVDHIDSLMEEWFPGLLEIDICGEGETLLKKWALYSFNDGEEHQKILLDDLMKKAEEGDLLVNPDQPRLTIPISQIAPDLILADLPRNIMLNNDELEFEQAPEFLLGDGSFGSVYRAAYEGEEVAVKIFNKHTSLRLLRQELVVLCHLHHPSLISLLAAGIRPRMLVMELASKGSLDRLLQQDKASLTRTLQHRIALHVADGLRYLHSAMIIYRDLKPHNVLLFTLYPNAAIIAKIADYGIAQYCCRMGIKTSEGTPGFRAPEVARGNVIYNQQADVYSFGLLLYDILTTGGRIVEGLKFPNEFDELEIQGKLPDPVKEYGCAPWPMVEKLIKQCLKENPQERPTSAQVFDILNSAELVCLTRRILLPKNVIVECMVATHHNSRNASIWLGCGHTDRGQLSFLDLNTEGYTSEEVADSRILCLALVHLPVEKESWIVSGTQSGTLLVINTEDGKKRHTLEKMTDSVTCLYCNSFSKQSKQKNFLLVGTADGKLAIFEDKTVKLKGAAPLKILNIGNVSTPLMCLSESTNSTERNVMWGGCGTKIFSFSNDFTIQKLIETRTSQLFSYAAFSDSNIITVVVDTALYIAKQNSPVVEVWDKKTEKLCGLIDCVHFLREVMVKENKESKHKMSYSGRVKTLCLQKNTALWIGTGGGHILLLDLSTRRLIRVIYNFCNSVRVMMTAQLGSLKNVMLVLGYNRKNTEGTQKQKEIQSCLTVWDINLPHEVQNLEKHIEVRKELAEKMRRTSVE

HIPK4, construct: Full length (from UniProt Q8NE63)
relative phosphorylation
Settings	at +1	at +2	at +3	at +4	at -1	at -2	at -3	at -4	at -5
A fixed	0.793	1.38	1.1	1.63	1.15	2.12	0.851	0.995	0.967
D fixed	0.277	0.726	0.71	0.68	0.67	0.463	0.711	0.697	0.886
E fixed	0.34	0.618	0.505	0.578	0.693	0.354	0.477	0.702	0.719
F fixed	0.339	1.46	1.08	1.11	0.616	0.478	0.453	0.816	1.13
G fixed	0.586	1.58	1.49	1.07	1.03	1.07	0.877	1.27	1.26
H fixed	0.671	1.13	0.857	0.716	0.991	0.507	0.649	0.803	1.08
I fixed	0.427	0.675	0.857	1.31	0.589	0.837	0.807	0.82	0.841
K fixed	1	0.686	0.565	0.63	1.72	0.808	0.926	0.864	0.833
L fixed	0.508	0.696	0.816	1.64	0.783	0.916	0.669	1.12	0.968
M fixed	0.403	0.805	0.812	1.53	0.836	0.602	0.661	0.895	0.735
N fixed	1.15	0.806	0.752	0.59	0.984	0.875	0.803	0.639	0.855
P fixed	5	2.12	3.82	1.33	2.03	4.06	1.14	2.12	1.15
Q fixed	0.894	0.753	0.657	0.631	1.23	0.639	0.799	0.759	0.842
R fixed	3.2	0.719	0.525	0.503	1.57	1.35	5.38	2.01	1.47
V fixed	0.684	0.669	0.647	1.28	0.687	1.09	0.615	0.67	0.793
W fixed	0.314	0.988	0.947	1	0.592	0.401	0.562	0.955	1.25
Y fixed	0.415	1.2	0.857	0.785	0.836	0.434	0.626	0.867	1.22
pThr fixed	0.405	0.51	0.71	0.616	0.417	0.585	0.547	0.844	0.67
pTyr fixed	0.36	0.516	0.998	0.728	0.619	0.404	0.561	0.697	0.898

IRAK4, construct: aa104-end (from UniProt Q9NWZ3)
relative phosphorylation
Settings	at +1	at +2	at +3	at +4	at -1	at -2	at -3	at -4	at -5
A fixed	1	0.837	0.672	0.783	0.78	1.05	0.954	1.13	1.15
D fixed	0.163	0.147	0.24	0.423	0.303	0.404	0.555	0.603	0.602
E fixed	0.314	0.164	0.217	0.405	0.247	0.405	0.507	0.619	0.554
F fixed	1.05	1.27	1.4	0.77	0.886	0.903	0.885	0.97	0.895
G fixed	1.13	0.45	0.698	0.935	0.636	1.31	1.36	1.22	1.29
H fixed	1.07	1.13	1.49	1.26	1.28	1.06	1.05	1.01	1.15
I fixed	0.92	1.42	1.33	0.897	0.774	0.842	0.755	0.742	0.89
K fixed	1.94	1.43	1.56	1.89	2.3	1.23	1.53	1.46	1.52
L fixed	0.83	1.05	1.24	0.85	0.877	1.23	0.935	0.852	0.774
M fixed	1.2	1.16	1.15	1.01	1	1.57	1.03	0.907	0.837
N fixed	0.705	0.669	0.651	1.04	1	1.14	1.1	1.14	0.997
P fixed	0.139	0.406	0.252	0.961	0.666	1.04	1.11	1.12	1.22
Q fixed	1.34	0.862	0.919	0.983	0.973	0.979	0.964	0.864	0.866
R fixed	2.58	1.99	1.76	1.83	2.31	1.34	1.65	1.5	1.59
V fixed	1.08	1.47	1.18	0.778	0.942	0.811	0.775	0.891	0.812
W fixed	0.778	1	1.11	1.25	0.755	0.814	0.968	1.01	0.881
Y fixed	0.755	1.53	1.12	0.942	1.26	0.878	0.864	0.957	0.966
pThr fixed	0.276	0.274	0.341	0.33	0.352	0.678	0.866	0.752	0.87
pTyr fixed	0.203	0.177	0.441	0.323	0.276	0.545	0.65	0.539	0.763

LRRK2, construct: aa960-end (from UniProt Q5S007)
relative phosphorylation
Settings	at +1	at +2	at +3	at +4	at -1	at -2	at -3	at -4	at -5
A fixed	0.869	0.867	0.909	0.908	0.82	1.05	0.893	0.985	1.01
D fixed	0.525	0.559	0.696	0.691	0.639	0.516	0.675	0.685	0.698
E fixed	0.546	0.451	0.595	0.673	0.517	0.477	0.662	0.719	0.741
F fixed	0.874	1.17	0.884	1	0.94	1.95	1.05	1.23	1.09
G fixed	0.82	0.826	0.894	0.966	1.17	1.18	1.06	1.06	0.993
H fixed	0.814	1.02	1.16	1.18	1.15	1.18	1.08	0.949	1.04
I fixed	0.996	0.834	0.649	0.934	0.482	0.684	0.74	0.758	0.906
K fixed	1.91	1.44	1.82	1.39	1.76	0.755	1.43	1.12	1.08
L fixed	1.15	0.786	0.755	0.865	0.812	0.943	0.85	0.842	0.858
M fixed	1.08	0.952	0.776	0.949	0.969	1.35	0.974	0.957	1.05
N fixed	0.977	0.943	1.12	1.12	1.03	0.799	0.881	0.805	0.83
P fixed	0.941	0.724	0.822	0.794	0.88	0.943	1.01	1.1	0.989
Q fixed	1.07	0.709	0.946	1.02	0.765	0.73	0.83	0.821	0.813
R fixed	1.88	2.91	2.3	1.45	1.97	0.994	2.07	1.4	1.37
V fixed	0.777	0.83	0.741	0.79	0.553	0.658	0.723	0.846	0.971
W fixed	0.857	0.908	1.05	1.09	0.879	1.28	0.996	1.65	1.47
Y fixed	0.916	1.07	0.885	1.17	1.65	1.51	1.07	1.08	1.1
pThr fixed	0.67	0.672	0.925	0.822	0.54	0.782	0.822	0.859	0.932
pTyr fixed	0.759	0.688	0.9	0.868	0.709	0.754	0.909	0.892	1.18

MAP3K2, construct: Full length (from UniProt Q9Y2U5)
relative phosphorylation
Settings	at +1	at +2	at +3	at +4	at -1	at -2	at -3	at -4	at -5
A fixed	1.01	0.873	0.802	1.04	1.04	1.2	0.975	1.07	1.12
D fixed	0.302	0.413	0.63	0.567	1.08	1.6	1.61	1.5	1.37
E fixed	0.296	0.344	0.477	0.691	0.935	0.953	1.53	1.43	1.16
F fixed	0.82	0.696	1.46	0.775	0.673	1.1	0.782	1.01	0.923
G fixed	0.868	0.663	0.865	0.981	1.41	1.27	1.65	1.23	1.22
H fixed	0.954	2.2	1.06	0.983	1.36	1.1	0.891	1.02	1.06
I fixed	1.59	0.632	1.09	0.877	0.549	0.82	0.608	0.73	0.828
K fixed	0.721	1.51	1.09	1.9	1.19	0.765	0.988	0.946	1.07
L fixed	1.29	0.694	1.16	0.918	0.904	0.704	0.698	0.749	0.743
M fixed	1.82	1.02	1.1	0.947	1.11	0.866	0.937	0.898	0.869
N fixed	0.614	0.902	0.914	0.703	1.17	0.829	1.08	0.96	0.883
P fixed	0.409	0.403	0.574	1.25	0.643	0.838	1.03	1.02	0.992
Q fixed	1.02	1	0.905	1.12	1.11	0.853	0.817	0.793	0.751
R fixed	1.09	1.94	1.32	1.68	1.39	0.757	1.18	0.978	0.95
V fixed	1.46	0.828	0.856	0.816	0.726	0.979	0.698	0.849	1.02
W fixed	1.81	0.986	1.51	0.909	0.662	0.919	0.747	0.952	1.08
Y fixed	0.926	1.89	1.2	0.853	1.04	1.46	0.778	0.868	0.959
pThr fixed	0.643	0.47	0.597	0.761	0.708	1.3	1.91	1.23	1.59
pTyr fixed	0.42	0.412	0.645	0.546	1.08	2.07	1.3	1	1.21
